What all share (settings): protein: commercial
Data set [1] concerns the target T1, MUC16 antigen (CA125) (UniProt Q8WXI7 1-14451). The data set can be described thus: SPR; 25 C, pH 7.2; kon 2.55e4 M-1 s-1, koff 1.01e-3 s-1; SPR, pH 7.2, 25 C (also 37 and 42 C); 1X PBS with 1 mM MgCl2 given as flow buffer for aptamer immobilization; surface blocked with 0.1% BSA.
For data set [2], the target named is T1, MUC16 antigen (CA125). The experiment in a line: SPR; 315 K (42 C), pH 7.2; SPR, pH 7.2, 25 C (also 37 and 42 C); 1X PBS with 1 mM MgCl2 given as flow buffer for aptamer immobilization; surface blocked with 0.1% BSA.
The target of data set [3] is T1, MUC16 antigen (CA125). The data set can be described thus: SPR; 310 K (37 C), pH 7.2; SPR, pH 7.2, 25 C (also 37 and 42 C); 1X PBS with 1 mM MgCl2 given as flow buffer for aptamer immobilization; surface blocked with 0.1% BSA.

With CTCACTATAGGGAGACAAGAATAAACGCTCAA (ssDNA, 3'-C6 amine) [anti-MUC16 aptamer], the Kd worked out at 39 nM with MUC16 antigen (CA125) [1], 1340 nM with MUC16 antigen (CA125) [2] and 101 nM in the data set with MUC16 antigen (CA125) [3].
